Assay results: US9176064B2, “Bisubstrate fluorescent probes for protein kinase CK2” (University of Tartu, priority 2012, dated 2015)
Where a SMILES comes first, the peptide text is derived from it. [ ]: non-standard residue; d: D form. The star is where a group is joined. X1 = O=C(CCCCCCCn1cnc2c(Br)c(Br)c(Br)c(Br)c21)*

Legend:
Assay in all cases: Kinase panel residual activity
Type in all cases: biochemical
Settings in all cases: compound at 1 micromolar
p38b MAPK = p38b MAPK (Homo sapiens, UniProt Q15759)
MAP4K5 = MAP4K5 (Homo sapiens, UniProt Q9Y4K4)
OSR1 = OSR1 (Homo sapiens, UniProt O95747)
WNK1 = WNK1 (Homo sapiens, UniProt Q9H4A3)
BRSK2 = target: T1, BRSK2 (Homo sapiens, UniProt Q8IWQ3)
T1 sequence (Q8IWQ3 1-736): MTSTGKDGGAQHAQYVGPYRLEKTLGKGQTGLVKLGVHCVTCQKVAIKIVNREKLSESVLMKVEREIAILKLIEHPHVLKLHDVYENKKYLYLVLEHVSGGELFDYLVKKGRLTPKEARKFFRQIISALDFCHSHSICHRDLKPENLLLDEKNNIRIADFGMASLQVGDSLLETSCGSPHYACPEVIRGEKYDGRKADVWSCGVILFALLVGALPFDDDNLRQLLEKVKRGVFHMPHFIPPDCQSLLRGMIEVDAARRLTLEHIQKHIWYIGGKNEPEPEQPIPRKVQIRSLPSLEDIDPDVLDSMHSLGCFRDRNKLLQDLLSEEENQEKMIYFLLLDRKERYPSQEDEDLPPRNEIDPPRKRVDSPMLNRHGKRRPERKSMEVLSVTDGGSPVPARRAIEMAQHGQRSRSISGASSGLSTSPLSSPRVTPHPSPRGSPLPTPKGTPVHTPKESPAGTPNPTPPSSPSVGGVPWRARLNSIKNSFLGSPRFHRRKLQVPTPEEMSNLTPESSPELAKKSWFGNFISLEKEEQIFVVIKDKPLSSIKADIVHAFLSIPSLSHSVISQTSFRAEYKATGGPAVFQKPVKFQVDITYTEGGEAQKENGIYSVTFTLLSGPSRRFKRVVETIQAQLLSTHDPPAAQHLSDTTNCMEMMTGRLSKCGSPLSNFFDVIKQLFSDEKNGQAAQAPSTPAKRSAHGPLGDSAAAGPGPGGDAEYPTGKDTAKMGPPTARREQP

JNK3 = JNK3 (Homo sapiens, UniProt P53779)
MAP4K3 = target: T2, MAP4K3 (Homo sapiens, UniProt Q8IVH8)
T2 sequence (Q8IVH8 1-894): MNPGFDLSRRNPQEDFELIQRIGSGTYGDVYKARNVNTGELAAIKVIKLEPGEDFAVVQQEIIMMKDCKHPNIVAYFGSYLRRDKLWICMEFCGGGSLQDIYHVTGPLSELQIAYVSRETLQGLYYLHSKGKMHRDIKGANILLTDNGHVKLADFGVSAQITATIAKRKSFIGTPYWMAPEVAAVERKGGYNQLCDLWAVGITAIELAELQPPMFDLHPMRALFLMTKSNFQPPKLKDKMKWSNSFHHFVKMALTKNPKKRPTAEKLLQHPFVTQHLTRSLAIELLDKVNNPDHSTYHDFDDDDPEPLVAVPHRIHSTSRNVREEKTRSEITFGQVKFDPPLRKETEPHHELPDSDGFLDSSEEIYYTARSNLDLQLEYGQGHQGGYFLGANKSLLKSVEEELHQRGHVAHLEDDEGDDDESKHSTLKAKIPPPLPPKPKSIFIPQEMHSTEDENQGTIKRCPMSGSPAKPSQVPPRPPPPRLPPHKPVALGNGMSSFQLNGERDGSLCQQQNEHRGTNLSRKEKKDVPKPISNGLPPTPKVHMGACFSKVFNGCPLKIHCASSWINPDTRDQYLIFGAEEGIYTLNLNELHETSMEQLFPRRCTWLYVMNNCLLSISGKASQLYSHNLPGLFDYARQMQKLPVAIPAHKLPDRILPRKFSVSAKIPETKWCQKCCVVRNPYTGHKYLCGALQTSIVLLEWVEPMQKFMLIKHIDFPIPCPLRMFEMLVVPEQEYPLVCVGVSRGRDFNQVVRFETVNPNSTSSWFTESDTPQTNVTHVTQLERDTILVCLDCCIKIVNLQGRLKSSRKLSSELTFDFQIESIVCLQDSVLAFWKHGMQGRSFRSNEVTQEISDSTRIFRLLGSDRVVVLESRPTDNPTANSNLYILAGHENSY

PKA = PKA (Homo sapiens, UniProt P17612)
MNK1 = MNK1 (Homo sapiens, UniProt Q9BUB5)
CHK2 = CHK2 (Homo sapiens, UniProt O96017)
TTBK2 = TTBK2 (Homo sapiens, UniProt Q6IQ55)
IKKe = target: T3, IKKe (Homo sapiens, UniProt Q14164)
T3 sequence (Q14164 1-716): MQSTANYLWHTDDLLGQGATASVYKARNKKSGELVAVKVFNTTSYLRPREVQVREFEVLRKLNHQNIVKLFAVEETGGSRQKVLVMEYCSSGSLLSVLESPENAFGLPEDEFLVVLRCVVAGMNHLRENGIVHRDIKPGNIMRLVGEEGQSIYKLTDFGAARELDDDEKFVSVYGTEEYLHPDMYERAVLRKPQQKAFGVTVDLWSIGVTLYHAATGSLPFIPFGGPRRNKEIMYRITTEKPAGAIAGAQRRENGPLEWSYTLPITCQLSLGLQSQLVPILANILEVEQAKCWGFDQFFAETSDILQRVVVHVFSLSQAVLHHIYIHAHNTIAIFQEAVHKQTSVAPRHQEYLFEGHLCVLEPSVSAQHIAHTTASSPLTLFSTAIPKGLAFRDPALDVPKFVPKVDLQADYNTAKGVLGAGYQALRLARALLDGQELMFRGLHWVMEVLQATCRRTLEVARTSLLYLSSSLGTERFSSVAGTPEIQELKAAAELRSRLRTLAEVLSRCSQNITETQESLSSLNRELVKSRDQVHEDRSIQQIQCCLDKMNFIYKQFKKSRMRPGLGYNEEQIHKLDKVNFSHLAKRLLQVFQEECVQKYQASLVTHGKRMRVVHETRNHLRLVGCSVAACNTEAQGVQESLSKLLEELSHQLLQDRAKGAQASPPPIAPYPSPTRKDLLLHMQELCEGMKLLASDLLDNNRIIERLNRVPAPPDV

Chain of OSR1 (O95747 whole entry): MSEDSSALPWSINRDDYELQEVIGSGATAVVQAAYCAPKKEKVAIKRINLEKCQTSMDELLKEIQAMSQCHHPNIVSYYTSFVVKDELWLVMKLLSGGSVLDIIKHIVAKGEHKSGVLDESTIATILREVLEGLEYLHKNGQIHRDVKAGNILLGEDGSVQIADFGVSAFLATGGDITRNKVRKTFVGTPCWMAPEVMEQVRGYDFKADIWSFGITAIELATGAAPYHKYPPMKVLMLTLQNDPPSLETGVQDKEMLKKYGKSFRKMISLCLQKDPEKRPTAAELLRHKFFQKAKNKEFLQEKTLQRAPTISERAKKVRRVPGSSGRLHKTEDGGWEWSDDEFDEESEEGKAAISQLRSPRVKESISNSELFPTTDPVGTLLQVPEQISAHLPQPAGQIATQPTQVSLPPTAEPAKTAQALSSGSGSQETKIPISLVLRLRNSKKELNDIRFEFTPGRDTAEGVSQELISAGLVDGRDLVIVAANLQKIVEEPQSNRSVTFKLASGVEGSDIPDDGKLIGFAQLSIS
Chain of TTBK2 (Q6IQ55 whole entry, species assumed): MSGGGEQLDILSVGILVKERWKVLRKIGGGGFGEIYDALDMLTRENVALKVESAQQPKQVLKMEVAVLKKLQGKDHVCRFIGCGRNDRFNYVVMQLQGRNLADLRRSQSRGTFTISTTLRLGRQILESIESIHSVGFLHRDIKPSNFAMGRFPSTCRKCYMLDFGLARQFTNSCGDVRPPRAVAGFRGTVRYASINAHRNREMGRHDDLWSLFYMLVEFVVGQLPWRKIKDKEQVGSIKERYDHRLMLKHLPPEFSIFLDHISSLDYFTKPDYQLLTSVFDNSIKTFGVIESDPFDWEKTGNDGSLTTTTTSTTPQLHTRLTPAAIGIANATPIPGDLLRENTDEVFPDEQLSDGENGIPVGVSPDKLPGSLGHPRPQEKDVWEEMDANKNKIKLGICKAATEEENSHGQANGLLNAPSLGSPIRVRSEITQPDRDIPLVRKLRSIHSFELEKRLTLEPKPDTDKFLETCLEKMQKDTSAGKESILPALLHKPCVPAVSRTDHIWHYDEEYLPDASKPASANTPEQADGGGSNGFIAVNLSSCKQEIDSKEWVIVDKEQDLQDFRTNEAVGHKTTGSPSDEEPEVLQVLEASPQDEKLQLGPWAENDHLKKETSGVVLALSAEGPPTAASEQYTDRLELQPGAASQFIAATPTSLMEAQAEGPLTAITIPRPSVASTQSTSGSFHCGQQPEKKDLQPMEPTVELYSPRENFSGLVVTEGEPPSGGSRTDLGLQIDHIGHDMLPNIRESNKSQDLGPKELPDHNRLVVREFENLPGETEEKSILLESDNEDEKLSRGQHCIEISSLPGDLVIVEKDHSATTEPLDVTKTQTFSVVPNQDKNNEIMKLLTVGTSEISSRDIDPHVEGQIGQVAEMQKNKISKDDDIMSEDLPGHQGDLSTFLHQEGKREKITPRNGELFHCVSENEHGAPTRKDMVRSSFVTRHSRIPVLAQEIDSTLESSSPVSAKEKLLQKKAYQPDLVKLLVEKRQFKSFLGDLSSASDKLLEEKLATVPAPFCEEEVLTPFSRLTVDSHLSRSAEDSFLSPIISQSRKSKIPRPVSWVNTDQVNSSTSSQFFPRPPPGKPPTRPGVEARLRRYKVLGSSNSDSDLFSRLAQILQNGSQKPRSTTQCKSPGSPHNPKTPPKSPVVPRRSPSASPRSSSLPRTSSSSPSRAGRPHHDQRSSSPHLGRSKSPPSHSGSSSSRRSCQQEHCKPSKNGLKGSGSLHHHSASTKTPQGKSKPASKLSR
Chain of p38b MAPK (Q15759 whole entry): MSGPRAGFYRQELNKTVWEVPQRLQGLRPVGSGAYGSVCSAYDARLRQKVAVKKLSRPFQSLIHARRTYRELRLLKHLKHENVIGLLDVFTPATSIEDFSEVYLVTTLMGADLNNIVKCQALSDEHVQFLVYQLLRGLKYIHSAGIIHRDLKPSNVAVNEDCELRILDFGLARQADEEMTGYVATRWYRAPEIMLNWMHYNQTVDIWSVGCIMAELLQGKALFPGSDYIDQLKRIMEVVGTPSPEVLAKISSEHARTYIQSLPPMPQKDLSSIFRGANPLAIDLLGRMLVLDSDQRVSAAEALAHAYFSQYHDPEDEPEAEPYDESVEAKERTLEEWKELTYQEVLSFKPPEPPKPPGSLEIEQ
Chain of WNK1 (Q9H4A3 whole entry, species assumed): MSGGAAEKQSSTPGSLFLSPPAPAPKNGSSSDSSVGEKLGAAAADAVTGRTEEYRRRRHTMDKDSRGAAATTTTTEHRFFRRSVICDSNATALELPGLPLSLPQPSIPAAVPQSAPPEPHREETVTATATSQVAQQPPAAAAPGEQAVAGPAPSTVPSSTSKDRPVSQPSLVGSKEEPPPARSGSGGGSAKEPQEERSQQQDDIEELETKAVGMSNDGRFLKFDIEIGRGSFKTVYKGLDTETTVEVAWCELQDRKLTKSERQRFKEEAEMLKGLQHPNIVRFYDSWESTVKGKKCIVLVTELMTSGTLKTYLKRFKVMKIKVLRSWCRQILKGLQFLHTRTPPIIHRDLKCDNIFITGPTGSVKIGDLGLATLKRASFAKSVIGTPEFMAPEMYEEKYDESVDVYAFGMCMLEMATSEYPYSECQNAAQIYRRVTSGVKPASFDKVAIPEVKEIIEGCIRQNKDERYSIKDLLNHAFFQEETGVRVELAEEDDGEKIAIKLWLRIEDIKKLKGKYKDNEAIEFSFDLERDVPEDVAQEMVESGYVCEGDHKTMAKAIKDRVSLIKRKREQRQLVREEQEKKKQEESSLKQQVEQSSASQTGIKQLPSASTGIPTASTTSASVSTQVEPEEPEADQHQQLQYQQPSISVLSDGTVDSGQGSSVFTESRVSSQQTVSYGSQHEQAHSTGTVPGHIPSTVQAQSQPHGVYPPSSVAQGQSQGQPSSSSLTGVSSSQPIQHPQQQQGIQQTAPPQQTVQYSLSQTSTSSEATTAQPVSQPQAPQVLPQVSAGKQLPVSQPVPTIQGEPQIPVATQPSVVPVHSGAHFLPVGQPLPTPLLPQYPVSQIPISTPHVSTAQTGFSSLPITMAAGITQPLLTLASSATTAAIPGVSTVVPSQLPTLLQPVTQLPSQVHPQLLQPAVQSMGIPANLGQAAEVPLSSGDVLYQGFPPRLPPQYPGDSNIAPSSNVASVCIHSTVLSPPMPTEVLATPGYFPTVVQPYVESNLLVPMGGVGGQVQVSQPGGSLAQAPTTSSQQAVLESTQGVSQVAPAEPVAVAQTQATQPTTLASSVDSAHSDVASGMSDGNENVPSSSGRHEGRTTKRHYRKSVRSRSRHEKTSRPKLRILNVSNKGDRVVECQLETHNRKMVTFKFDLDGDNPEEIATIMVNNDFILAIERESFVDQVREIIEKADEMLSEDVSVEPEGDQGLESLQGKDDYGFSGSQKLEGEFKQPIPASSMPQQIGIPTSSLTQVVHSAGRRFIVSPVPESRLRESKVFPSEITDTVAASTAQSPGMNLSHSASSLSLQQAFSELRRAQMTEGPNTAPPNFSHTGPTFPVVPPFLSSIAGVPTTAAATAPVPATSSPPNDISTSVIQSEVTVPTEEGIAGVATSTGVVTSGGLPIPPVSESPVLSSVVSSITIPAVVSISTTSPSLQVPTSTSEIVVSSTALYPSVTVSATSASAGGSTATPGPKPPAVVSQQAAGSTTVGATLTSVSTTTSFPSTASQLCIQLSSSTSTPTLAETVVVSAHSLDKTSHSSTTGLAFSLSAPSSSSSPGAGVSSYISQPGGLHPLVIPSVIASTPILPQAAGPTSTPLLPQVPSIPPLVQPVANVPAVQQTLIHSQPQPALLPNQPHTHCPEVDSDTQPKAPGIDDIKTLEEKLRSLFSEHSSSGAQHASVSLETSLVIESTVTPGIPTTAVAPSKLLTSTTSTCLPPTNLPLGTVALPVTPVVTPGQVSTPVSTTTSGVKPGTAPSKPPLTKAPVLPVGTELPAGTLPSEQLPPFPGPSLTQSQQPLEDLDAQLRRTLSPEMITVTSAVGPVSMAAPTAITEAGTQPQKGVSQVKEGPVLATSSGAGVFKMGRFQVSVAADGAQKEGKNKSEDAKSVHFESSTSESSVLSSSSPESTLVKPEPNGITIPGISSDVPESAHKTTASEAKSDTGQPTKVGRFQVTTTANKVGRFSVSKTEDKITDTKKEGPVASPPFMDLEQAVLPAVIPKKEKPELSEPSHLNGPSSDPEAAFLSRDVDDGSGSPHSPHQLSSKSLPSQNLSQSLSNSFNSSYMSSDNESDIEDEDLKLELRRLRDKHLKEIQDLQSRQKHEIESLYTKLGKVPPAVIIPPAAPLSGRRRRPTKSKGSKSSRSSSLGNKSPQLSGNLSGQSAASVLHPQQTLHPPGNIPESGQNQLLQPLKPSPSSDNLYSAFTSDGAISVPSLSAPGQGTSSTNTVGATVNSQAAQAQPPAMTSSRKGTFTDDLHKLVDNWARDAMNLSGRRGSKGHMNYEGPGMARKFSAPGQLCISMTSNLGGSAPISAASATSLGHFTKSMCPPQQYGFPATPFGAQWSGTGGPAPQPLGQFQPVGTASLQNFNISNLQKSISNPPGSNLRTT
Chain of MNK1 (Q9BUB5 whole entry, species assumed): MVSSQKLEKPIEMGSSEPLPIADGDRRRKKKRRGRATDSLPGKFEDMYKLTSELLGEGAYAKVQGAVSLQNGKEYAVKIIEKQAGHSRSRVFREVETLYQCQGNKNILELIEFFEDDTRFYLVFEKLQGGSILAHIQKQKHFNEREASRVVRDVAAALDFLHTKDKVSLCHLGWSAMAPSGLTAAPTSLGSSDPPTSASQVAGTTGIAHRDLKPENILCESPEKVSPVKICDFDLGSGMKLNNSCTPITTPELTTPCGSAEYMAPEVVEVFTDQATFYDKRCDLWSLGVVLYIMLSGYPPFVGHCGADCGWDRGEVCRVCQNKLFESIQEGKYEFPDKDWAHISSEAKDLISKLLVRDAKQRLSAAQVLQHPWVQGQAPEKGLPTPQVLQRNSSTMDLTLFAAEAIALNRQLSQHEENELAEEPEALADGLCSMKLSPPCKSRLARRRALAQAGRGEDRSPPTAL

**Q.** What does the source list for `NCCCC[C@H](NC(=O)[C@H](CC(=O)O)NC(=O)[C@H](CC(=O)O)NC(=O)[C@H](CC(=O)O)NC(=O)[C@H](CC(=O)O)NC(=O)[C@H](CC(=O)O)NC(=O)[C@@H](CC(=O)O)NC(=O)CCCCCCCn1cnc2c(Br)c(Br)c(Br)c(Br)c21)C(=O)O` [TBBI-OcA-(D-Asp)-(L-Asp)5-(L-Lys)-OH] (X1-[dD]DDDDDK-OH)?
**A.** remaining activity at 1 µM (p38b MAPK): 122%; remaining activity at 1 µM (MAP4K5): 132%; remaining activity at 1 µM (OSR1): 130%; remaining activity at 1 µM (WNK1): 88%; remaining activity at 1 µM (BRSK2): 75%; remaining activity at 1 µM (JNK3): 85%; remaining activity at 1 µM (MAP4K3): 86%; remaining activity at 1 µM (PKA): 100%; remaining activity at 1 µM (MNK1): 99%; remaining activity at 1 µM (CHK2): 101%; remaining activity at 1 µM (TTBK2): 95%; remaining activity at 1 µM (IKKe): 84%
